Assay [1] has as its target T1, vascular endothelial growth factor receptor 2 (VEGFR2), endogenous, from HUVEC lysates (human, UniProt P35968 20-1356).
T1 construct: Endogenous receptor from cell lysate, detected by western blot with anti-VEGFR2 antibody or by mass spectrometry; also called Flk-1
Put plainly: pull-down of endogenous VEGFR2 from HUVEC lysate with the recombinant truncation on beads, western blot with anti-VEGFR2 antibody.

In assay [2] the target is T1, vascular endothelial growth factor …. Put plainly: pull-down from HUVEC lysate with recombinant protein on beads, anti-VEGFR2 western blot. From the text: The DUFs were identified from amino acid sequence similarity on the Pfam database. It has been previously shown that both domains of DUF3694 directly bind recombinant VEGFR2 in vitro (Yamada, et al. (2007) Biochemistry 46:10039-45). […] DUF2 was divided into 3 parts, DUF2A (residues 1111-1167), DUF2B (residues 1168-1216), and DUF2C (residues 1217-1281) and each part was expressed as a recombinant protein in bacteria. VEGFR2 was abundantly expressed in HUVECs; thus, cell lysate from HUVECs was incubated with these recombinant proteins on beads, and VEGFR2 binding was determined using the anti-VEGFR2 antibody.

The target of assay [3] is T2, VEGFR2, recombinant cytosolic domain (Fisher Scientific) (UniProt P35968 789-1356, limits assumed).
T2 construct: domain: cytosolic domain; Analyte in the BIACORE experiment
Put plainly: SPR (BIACORE), peptide on avidin-coated chip, recombinant cytosolic domain as analyte.

Assay [4] has as its target T3, Par1 (UniProt P25116 22-425, limits assumed).
T3 sequence (looked up): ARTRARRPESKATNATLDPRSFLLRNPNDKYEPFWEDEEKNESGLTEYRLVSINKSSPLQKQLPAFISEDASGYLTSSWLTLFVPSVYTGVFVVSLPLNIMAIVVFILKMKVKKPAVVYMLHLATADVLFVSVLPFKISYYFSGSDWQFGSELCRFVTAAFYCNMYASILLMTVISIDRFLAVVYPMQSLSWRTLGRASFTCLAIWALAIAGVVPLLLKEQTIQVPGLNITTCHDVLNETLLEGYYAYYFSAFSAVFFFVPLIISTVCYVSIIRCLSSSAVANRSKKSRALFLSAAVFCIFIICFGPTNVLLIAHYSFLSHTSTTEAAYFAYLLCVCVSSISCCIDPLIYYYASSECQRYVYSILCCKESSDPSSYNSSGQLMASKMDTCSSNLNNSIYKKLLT
Put plainly: pull-down with peptide on streptavidin beads, mass spec analysis.

Assay [5] has as its target Tie2 (UniProt Q02763 23-1124, limits assumed). The description is as above.
For assay [6], the target named is T1, vascular endothelial growth factor …. Kind of assay: pull-down from HUVEC lysates, peptide on streptavidin beads.
Assay [7] concerns the target EGFR, endogenous, found in the pull-down by mass spectrometry (UniProt P00533 25-1210, limits assumed). Kind of assay: pull-down with peptide on streptavidin beads, mass spec analysis.
In assay [8] the target is PDGFRα, endogenous, found in the pull-down by mass spectrometry (UniProt P16234 24-1089, limits assumed). The assay is described as above.
For assay [9], the target named is PDGFRβ, endogenous, found in the pull-down by mass spectrometry (UniProt P09619 33-1106, limits assumed). The description is as above.

No end group written: not given here.

T1 sequence (P35968 20-1356 limits assumed): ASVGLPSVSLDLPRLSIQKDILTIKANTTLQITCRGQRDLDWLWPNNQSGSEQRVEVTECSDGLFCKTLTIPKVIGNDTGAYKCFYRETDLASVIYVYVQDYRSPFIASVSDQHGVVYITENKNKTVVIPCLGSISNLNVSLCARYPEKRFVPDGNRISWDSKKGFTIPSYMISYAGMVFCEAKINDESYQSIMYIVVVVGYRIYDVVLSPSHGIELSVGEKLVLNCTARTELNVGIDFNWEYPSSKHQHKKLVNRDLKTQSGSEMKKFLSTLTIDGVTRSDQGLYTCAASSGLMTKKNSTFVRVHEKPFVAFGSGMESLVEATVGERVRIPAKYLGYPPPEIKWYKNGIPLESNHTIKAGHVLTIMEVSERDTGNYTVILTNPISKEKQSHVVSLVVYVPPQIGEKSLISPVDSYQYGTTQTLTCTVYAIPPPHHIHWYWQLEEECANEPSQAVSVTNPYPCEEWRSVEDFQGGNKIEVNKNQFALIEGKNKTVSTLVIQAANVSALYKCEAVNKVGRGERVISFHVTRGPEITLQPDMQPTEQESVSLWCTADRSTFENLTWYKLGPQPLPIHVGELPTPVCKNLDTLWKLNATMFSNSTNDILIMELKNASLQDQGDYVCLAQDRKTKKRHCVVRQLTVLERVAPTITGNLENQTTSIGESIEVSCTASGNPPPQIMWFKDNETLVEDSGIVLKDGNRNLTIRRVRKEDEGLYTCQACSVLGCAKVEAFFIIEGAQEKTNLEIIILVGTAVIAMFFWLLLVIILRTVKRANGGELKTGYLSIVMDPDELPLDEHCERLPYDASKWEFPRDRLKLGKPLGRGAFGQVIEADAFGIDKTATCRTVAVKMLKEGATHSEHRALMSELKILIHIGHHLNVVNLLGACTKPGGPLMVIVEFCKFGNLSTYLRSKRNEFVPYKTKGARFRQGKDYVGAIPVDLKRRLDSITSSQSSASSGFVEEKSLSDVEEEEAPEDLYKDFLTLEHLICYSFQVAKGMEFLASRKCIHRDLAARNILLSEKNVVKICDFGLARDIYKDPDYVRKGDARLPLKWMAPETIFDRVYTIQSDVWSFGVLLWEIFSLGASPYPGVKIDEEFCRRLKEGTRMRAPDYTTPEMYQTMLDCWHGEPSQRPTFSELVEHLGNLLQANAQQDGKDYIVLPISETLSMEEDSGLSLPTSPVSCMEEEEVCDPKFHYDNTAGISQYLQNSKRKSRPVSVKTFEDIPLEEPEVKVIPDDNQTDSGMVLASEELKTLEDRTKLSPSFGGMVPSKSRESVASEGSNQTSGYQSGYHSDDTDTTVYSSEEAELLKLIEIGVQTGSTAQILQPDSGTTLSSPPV
T2 sequence (P35968 789-1356 limits assumed): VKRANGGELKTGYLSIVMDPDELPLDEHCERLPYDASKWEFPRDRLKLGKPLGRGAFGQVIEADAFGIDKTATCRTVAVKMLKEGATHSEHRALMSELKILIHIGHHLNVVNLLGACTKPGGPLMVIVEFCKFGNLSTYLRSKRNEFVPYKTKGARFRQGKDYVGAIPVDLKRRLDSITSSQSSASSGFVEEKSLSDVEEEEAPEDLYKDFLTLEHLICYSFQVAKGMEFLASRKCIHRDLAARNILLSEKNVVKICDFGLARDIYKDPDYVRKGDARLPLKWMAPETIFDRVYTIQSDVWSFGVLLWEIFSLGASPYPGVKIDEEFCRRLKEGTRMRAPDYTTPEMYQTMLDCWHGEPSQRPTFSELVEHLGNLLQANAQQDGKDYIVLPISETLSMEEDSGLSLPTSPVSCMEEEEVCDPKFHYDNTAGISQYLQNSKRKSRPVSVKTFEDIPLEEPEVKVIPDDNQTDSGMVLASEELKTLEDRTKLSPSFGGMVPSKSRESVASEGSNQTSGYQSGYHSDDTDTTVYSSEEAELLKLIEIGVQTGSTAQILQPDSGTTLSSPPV
Tie2, sequence (Q02763 23-1124 limits assumed): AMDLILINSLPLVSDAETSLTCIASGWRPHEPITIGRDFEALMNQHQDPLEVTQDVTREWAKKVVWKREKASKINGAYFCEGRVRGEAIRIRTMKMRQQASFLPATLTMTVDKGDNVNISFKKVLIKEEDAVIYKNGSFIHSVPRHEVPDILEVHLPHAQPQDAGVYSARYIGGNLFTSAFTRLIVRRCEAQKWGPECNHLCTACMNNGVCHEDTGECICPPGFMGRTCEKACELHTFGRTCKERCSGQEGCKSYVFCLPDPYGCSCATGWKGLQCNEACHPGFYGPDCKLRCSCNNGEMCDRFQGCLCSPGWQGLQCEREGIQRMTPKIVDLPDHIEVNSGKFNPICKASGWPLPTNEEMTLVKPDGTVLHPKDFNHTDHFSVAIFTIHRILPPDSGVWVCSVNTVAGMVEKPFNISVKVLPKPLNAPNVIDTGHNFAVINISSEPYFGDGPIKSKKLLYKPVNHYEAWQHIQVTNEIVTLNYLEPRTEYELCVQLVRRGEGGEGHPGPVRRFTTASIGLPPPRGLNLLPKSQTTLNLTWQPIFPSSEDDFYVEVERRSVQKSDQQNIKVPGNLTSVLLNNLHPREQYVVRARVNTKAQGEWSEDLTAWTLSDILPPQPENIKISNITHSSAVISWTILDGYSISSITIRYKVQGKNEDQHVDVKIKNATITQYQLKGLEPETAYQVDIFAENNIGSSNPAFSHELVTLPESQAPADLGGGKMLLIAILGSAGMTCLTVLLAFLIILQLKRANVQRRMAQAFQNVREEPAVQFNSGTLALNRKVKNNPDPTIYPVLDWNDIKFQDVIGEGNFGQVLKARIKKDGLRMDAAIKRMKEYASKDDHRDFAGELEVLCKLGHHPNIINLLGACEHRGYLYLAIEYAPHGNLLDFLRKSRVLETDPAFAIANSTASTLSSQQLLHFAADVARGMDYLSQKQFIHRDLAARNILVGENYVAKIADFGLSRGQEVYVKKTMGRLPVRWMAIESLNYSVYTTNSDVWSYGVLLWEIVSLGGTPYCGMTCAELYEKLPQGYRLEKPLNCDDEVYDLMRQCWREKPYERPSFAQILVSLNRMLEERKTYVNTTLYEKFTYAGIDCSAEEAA
PDGFRβ, endogenous, found in the pull-down by mass spectrometry, sequence (P09619 33-1106 limits assumed): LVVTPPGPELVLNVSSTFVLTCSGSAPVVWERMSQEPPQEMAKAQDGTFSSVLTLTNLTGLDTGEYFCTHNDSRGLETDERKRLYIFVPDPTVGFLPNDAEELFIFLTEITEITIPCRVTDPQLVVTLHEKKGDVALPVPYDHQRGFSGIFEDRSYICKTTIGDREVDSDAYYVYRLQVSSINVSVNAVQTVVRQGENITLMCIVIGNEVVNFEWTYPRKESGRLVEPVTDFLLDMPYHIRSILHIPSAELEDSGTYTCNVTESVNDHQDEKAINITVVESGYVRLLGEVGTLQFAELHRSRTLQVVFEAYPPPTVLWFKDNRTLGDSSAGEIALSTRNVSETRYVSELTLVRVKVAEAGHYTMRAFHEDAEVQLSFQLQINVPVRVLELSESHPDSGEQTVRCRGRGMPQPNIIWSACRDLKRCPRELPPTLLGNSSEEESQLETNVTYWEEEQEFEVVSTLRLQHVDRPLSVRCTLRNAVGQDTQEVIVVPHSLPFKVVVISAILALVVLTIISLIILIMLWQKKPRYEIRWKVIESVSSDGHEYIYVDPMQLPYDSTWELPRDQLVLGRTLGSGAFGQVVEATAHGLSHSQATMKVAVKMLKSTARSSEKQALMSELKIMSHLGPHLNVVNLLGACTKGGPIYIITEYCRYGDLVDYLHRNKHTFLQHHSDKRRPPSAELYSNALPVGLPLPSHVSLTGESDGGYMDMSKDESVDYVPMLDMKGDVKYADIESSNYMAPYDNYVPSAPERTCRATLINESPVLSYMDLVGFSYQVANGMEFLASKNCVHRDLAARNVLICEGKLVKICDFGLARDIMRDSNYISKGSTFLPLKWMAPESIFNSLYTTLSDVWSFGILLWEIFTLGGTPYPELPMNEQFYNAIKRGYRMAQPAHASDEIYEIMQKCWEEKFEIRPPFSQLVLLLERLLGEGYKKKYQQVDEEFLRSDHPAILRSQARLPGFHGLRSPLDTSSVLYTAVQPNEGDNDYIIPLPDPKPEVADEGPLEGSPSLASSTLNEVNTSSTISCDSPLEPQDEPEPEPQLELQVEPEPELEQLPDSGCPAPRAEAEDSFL

B1: C1 (peptide, UniProt Q9NQT8 1202-1240, looked up)
single chain: GEEEEEFFELQIVKQHDGEVKAEASWDSAVHGCPQLSRG
notes: recombinant truncated mutant expressed in bacteria with His-tag and S-tag; the sheet prints only 'C1'; also called DUF2C1; DUF C1 (1202-1240 aa)
Consider B1, for which the binding result in assay [1] is “no binding”.

B2: DUF2A (residues 1111-1167 of KIF13B), recombinant protein from bacteria (other, human, UniProt Q9NQT8 1111-1167, looked up)
chain: QKLVSKRDKTEDDADREAQLLEMRLTLTEERNAVMVPSAGSGIPGAPAEWTPVPGME
notes: range 1111-1167; not shown: His-tag and S-tag
For the molecule B2, the binding result in [2] is “no binding”.

B3: C4 (peptide, UniProt Q9NQT8 1226-1251, looked up)
single chain: SWDSAVHGCPQLSRGTPVDERLFLIV
notes: recombinant truncated mutant expressed in bacteria with His-tag and S-tag; the sheet prints only 'C4'; also called DUF2C4; DUF C4 (1226-1251 aa)
As to B3, in assay [1], the binding result is given as “no binding”.

B4: Biotin-DUF2C5 peptide (synthetic, residues 1238-1260 of KIF13B with a biotin-tag) (peptide)
peptide: SRGTPVDERLFLIVRVTVQLSHP
modifications: also: biotin-tag (position not given here)
notes: Immobilised on streptavidin beads (pull-down, mass spectrometry) or on an avidin-coated BIACORE chip
For the molecule B4, in assay [3], the Kd worked out at 5.5 nM. For the same molecule, the binding result in assay [4] and in assay [5] was “no binding” in each case.
For RVRASELRSFSRMLAGDPGCSPG (peptide, UniProt Q9NQT8 1650-1672, looked up, also: biotin-tag (position not given here), range 1650-1672) [CT23 (residues 1650 to 1672 of KIF13B), synthetic negative control peptide with a biotin-tag], the binding result in [6], in assay [3], in assay [7], in assay [8] and in [9] was “no binding” throughout.

B5: DUF2B (residues 1168-1216 of KIF13B), recombinant protein from bacteria (other, human, UniProt Q9NQT8 1168-1216, looked up)
chain: THIPVIFLDLNADDFSSQDNLDDPEAGGWDATLTGEEEEEFFELQIVKQ
notes: range 1168-1216; not shown: His-tag and S-tag
For B5, in assay [2], the binding result was “no binding”.

B6: C7 (peptide, not shown: small tags and cut ends)
peptide: ADMQLVLRKRICVNVHGRQGF
notes: the sheet prints only 'C7'; also called DUF2C7; DUF C7 (1261-1281 aa)
In the case of B6, the binding result in assay [1] is listed as “no binding”.

These data come from US20190169241A1 (BOARD OF TRUSTEES OF THE UNIVERSITY OF ILLINOIS, published 2019).
